{"source": "patent US20240174740A1", "about": "(EYEPOINT PHARMACEUTICALS, published 2024)", "key": {"[1]": {"molecular_target": "T1, poly-histidine tagged HPTP-β extracellular domain (ECD) 1/2 (human, UniProt P23467 23-730, limits assumed)", "T1 construct": "domain: extracellular domain (ECD) 1/2; Captured on the Biacore chip through goat anti-His antibody; also called His-tagged ligand HPTP-β 1/2 ECD; not shown: poly-histidine tag", "T1 sequence (looked up)": "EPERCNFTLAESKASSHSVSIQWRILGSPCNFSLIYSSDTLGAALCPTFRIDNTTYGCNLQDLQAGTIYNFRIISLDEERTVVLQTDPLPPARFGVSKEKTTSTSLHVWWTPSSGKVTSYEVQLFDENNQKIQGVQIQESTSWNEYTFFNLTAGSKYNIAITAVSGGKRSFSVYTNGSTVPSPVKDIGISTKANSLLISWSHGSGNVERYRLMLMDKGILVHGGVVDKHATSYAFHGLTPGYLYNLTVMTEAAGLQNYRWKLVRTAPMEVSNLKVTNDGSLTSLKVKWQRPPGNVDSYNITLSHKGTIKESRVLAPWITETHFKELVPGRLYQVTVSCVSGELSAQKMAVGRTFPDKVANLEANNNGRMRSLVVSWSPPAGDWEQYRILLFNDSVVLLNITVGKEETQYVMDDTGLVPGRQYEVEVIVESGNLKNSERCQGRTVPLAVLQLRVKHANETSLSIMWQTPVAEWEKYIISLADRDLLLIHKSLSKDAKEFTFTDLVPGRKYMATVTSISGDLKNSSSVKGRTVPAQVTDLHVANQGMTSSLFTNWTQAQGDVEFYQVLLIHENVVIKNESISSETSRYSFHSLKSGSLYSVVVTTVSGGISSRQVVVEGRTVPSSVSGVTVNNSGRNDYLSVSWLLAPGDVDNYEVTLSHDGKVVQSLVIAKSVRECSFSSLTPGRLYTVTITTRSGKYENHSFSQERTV", "assay": "Biacore SPR, scouting at 10 nM analyte; His-tagged HPTP-β 1/2 ECD captured by anti-His, antibody as analyte", "procedure": "(§1) The assay buffer contained 10 mM HEPES buffer (pH 7.4), 150 mM NaCl, 3 mM EDTA, and 0.05% P20 (polyoxyethylenesorbitan). […] The conjugation buffer contained 10 mM sodium acetate buffer (pH 5). A flow rate of 5 μL/minute was used for capturing ligand. A flow rate of 30 μL/minute was used for kinetic analysis.\n(§2) For analysis of binding of antibodies to HPTP-β, poly-histidine tagged HPTP-β extracellular domain (ECD) 1/2 was immobilized on a chip surface via anti-His antibodies. Goat anti-His antibody was first immobilized on the surface of the chip by direct immobilization using EDC/NHS (N-ethyl-N′-(3-dimethyl aminopropyl carbodiimide)/N-hydroxy succinamide) coupling chemistry on flow cell 2 of the CM5 (Carboxymethylated dextran coated) chip. Unoccupied sites were blocked with 1M ethanolamine. The His-tagged ligand HPTP-β 1/2 ECD was captured at a response unit (RU) of 50. The analyte (antibody) was flowed over the chip at a single analyte concentration at a time. The binding of analyte to the ligand was monitored in real time to obtain on (kₐ) and off (kd) rates. The equilibrium constant (KD) was calculated from the observed kₐ and kd.\n(§3) Chi square analysis was carried out between the actual sensorgram and the sensorgram generated from the BIAnalysis software to confirm the accuracy of the analysis; values of 1-2 were considered accurate and below 1 highly accurate."}, "[2]": {"molecular_target": "T2, VEGF (UniProt P15692-4 27-191, limits assumed)", "T2 construct": "also called vascular endothelial growth factor", "T2 sequence (P15692 other isoform, or with tags, fused parts or gaps limits assumed)": "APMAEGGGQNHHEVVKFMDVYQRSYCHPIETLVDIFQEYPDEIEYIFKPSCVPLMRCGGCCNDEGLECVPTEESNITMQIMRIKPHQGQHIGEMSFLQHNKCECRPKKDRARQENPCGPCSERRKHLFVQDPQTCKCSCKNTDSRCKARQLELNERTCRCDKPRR", "assay": "Biacore SPR, scouting; antibody immobilised on CM5 chip, VEGF as analyte", "procedure": "For analysis of binding of the antibodies to VEGF, the antibodies were immobilized on the surface of the chip by direct immobilization using EDC/NHS coupling chemistry on flow cell 2 of the CM5 chip. Unoccupied sites were blocked with 1M ethanolamine. The analyte (VEGF) was flowed over the chip at a single analyte concentration at a time. The binding of analyte to the ligand was monitored in real time to obtain on (kₐ) and off (kd) rates. The equilibrium constant (KD) was calculated from the observed kₐ and kd.\nas §3"}, "[3]": {"molecular_target": "T1, poly-histidine tagged HPTP-β …", "assay": "Biacore SPR, full kinetics at 0-10 nM analyte; His-tagged HPTP-β 1/2 ECD captured by anti-His, antibody as analyte", "procedure": "as §1, §2\nChi square analysis was carried out between the actual sensorgram and the sensorgram generated from the BNAnalysis software to confirm the accuracy of the analysis; values of 1-2 were considered accurate and below 1 highly accurate."}}}
{"binder": "HC2:LC1 (antibody, human IgG4 S228P, kappa, V domains shown, Human IgG4 (S228P) heavy chain HC2 (VH2) and human kappa light chain LC1 (VL1); also called humanized monoclonal antibody specific for HPTP-β) VH: EVQLVESGGGLVQPGGSLRLSCAASGFTFNANAMNWVRQAPGKGLEWVGRIRTKSNNYATYYAGSVKDRFTISRDDSKNSLYLQMNSLKTEDTAVYYCVRDYYGSSAWITYWGQGTLVTVSS VL: DVVMTQSPSFLSASVGDRVTITCKASQHVGTAVAWYQQRPGKAPKLLIYWASTRHTGVPSRFSGSGSGTEFTLTISSLQPEDFATYFCQQYSSYPFTFGGGTKLEIKR", "values": [{"measurement": "Kd", "setting": "[1]", "result": 0.0732, "unit": "nM"}, {"measurement": "binding result", "setting": "[2]", "result": "no binding (tested: 10 nM of analyte)"}, {"measurement": "Kd", "setting": "[3]", "result": 0.121, "unit": "nM"}]}
